B1: Elp3 (endogenous, in the Elp123 subcomplex) (enzyme, UniProt Q02908 1-557, looked up)
chain: MARHGKGPKTNKKKLAPEKERFIQCCADITLELTDSLTSGTTREINLNGLITKYSKKYKLKQQPRLTDIINSIPDQYKKYLLPKLKAKPVRTASGIAVVAVMCKPHRCPHIAYTGNICVYCPGGPDSDFEYSTQSYTGYEPTSMRAIRARYDPYEQARGRVEQLKQLGHSIDKVEYVLMGGTFMSLPKEYREDFIVKLHNALSGFNGNDIDEAILYSQQSLTKCVGITIETRPDYCTQTHLDDMLKYGCTRLEIGVQSLYEDVARDTNRGHTVRSVCETFAVSKDAGYKVVSHMMPDLPNVGMERDIEQFKEYFENPDFRTDGLKIYPTLVIRGTGLYELWKTGRYKSYSANALVDLVARILALVPPWTRIYRVQRDIPMPLVTSGVDNGNLRELALARMKDLGTTCRDVRTREVGIQEVHHKVQPDQVELIRRDYYANGGWETFLSYEDPKKDILIGLLRLRKASKKYTYRKEFTSQRTSIVRELHVYGSVVPLHSRDPRKFQHQGFGTLLMEEAERIAKEEHGSEKISVISGVGVRNYYGKLGYELDGPYMSKRI
B2: Elp2 (endogenous, in the Elp123 subcomplex) (natural protein, UniProt P42935 1-788, looked up)
chain: MVECITPEAIFIGANKQTQVSDIHKVKKIVAFGAGKTIALWDPIEPNNKGVYATLKGHEAEVTCVRFVPDSDFMVSASEDHHVKIWKFTDYSHLQCIQTIQHYSKTIVALSALPSLISVGCADGTISIWRQNIQNDEFGLAHEFTIKKGFFYPLCLSLSKVEEKKYLLAIGGTNVNVFIASFILSDSGIEKCRVVAELEGHEDWVKSLAFRHQETPGDYLLCSGSQDRYIRLWRIRINDLIDDSEEDSKKLTLLSNKQYKFQIDDELRVGINFEALIMGHDDWISSLQWHESRLQLLAATADTSLMVWEPDETSGIWVCSLRLGEMSSKGASTATGSSGGFWSCLWFTHERMDFFLTNGKTGSWRMWATKDNIICDQRLGISGATKDVTDIAWSPSGEYLLATSLDQTTRLFAPWIYDASGRKREIATWHEFSRPQIHGYDMICVETVTDTRFVSGGDEKILRSFDLPKGVAGMLQKFVGIQFEEKSEMPDSATVPVLGLSNKAGEDDANEDDEEEEGGNKETPDITDPLSLLECPPMEDQLQRHLLWPEVEKLYGHGFEITCLDISPDQKLIASACRSNNVQNAVIRIFSTENWLEIKPALPFHSLTITRLKFSKDGKFLLSVCRDRKWALWERNMEDNTFELRFKNEKPHTRIIWDADWAPLEFGNVFVTASRDKTVKVWRHQKEPADDYVLEASIKHTKAVTAISIHDSMIREKILISVGLENGEIYLYSYTLGKFELITQLNEDITPADKITRLRWSHLKRNGKLFLGVGSSDLSTRIYSLAYE
B3: Elp1-3xFLAG (endogenous, in the Elp123 subcomplex) (natural protein, S. cerevisiae, UniProt Q06706 1-1349, looked up)
chain: MVEHDKSGSKRQELRSNMRNLITLNKGKFKPTASTAEGDEDDLSFTLLDSVFDTLSDSITCVLGSTDIGAIEVQQFMKDGSRNVLASFNIQTFDDKLLSFVHFADINQLVFVFEQGDIITATYDPVSLDPAETLIEIMGTIDNGIAAAQWSYDEETLAMVTKDRNVVVLSKLFEPISEYHLEVDDLKISKHVTVGWGKKETQFRGKGARAMEREALASLKASGLVGNQLRDPTMPYMVDTGDVTALDSHEITISWRGDCDYFAVSSVEEVPDEDDETKSIKRRAFRVFSREGQLDSASEPVTGMEHQLSWKPQGSLIASIQRKTDLGEEDSVDVIFFERNGLRHGEFDTRLPLDEKVESVCWNSNSEALAVVLANRIQLWTSKNYHWYLKQELYASDISYVKWHPEKDFTLMFSDAGFINIVDFAYKMAQGPTLEPFDNGTSLVVDGRTVNITPLALANVPPPMYYRDFETPGNVLDVACSFSNEIYAAINKDVLIFAAVPSIEEMKKGKHPSIVCEFPKSEFTSEVDSLRQVAFINDSIVGVLLDTDNLSRIALLDIQDITQPTLITIVEVYDKIVLLRSDFDYNHLVYETRDGTVCQLDAEGQLMEITKFPQLVRDFRVKRVHNTSAEDDDNWSAESSELVAFGITNNGKLFANQVLLASAVTSLEITDSFLLFTTAQHNLQFVHLNSTDFKPLPLVEEGVEDERVRAIERGSILVSVIPSKSSVVLQATRGNLETIYPRIMVLAEVRKNIMAKRYKEAFIVCRTHRINLDILHDYAPELFIENLEVFINQIGRVDYLNLFISCLSEDDVTKTKYKETLYSGISKSFGMEPAPLTEMQIYMKKKMFDPKTSKVNKICDAVLNVLLSNPEYKKKYLQTIITAYASQNPQNLSAALKLISELENSEEKDSCVTYLCFLQDVNVVYKSALSLYDVSLALLVAQKSQMDPREYLPFLQELQDNEPLRRKFLIDDYLGNYEKALEHLSEIDKDGNVSEEVIDYVESHDLYKHGLALYRYDSEKQNVIYNIYAKHLSSNQMYTDAAVAYEMLGKLKEAMGAYQSAKRWREAMSIAVQKFPEEVESVAEELISSLTFEHRYVDAADIQLEYLDNVKEAVALYCKAYRYDIASLVAIKAKKDELLEEVVDPGLGEGFGIIAELLADCKGQINSQLRRLRELRAKKEENPYAFYGQETEQADDVSVAPSETSTQESFFTRYTGKTGGTAKTGASRRTAKNKRREERKRARGKKGTIYEEEYLVQSVGRLIERLNQTKPDAVRVVEGLCRRNMREQAHQIQKNFVEVLDLLKANVKEIYSISEKDRERVNENGEVYYIPEIPVPEIHDFPKSHIVDF

Columns and labels:
Test in all cases: cryo-EM structure
[1] = biological target: B2
[2] = biological target: B3
cryo-EM structure = biological target: the molecule itself

| Binder | binding result [1] | binding result [2] | stoichiometry N (cryo-EM structure) |
| --- | --- | --- | --- |
| B1 | binds | binds | – |
| B2 | – | binds | – |
| B3 | – | – | 2 |

From PMC6620098 (Science Advances, 2019)
